In US20090130105A1 (Biogen, published 2009):

Key:
[1] = target: T1, human IGF-1R on H322M non-small cell lung cancer cells (human, UniProt P08069 31-1367); test: flow cytometry on H322M cells
T1 construct: Endogenous receptor of the tumor cell line; also called cell surface IGF-1R
Protocol: (§1) Cell lines were routinely cultured no greater than 20 passages. Flow cyotometric analysis of antibody binding to human cancer cells. Cells were lifted with cell dissociation buffer (Gibco catalog #13151-014), counted, washed and adjusted to 5×10⁶ cells/ml. Cells (2.5×10⁵; 50 uL) were added to each well of a 96-well round bottom plate (Costar #3799). Purified antibodies were tested at a starting concentration of 300 nM with serial half-log dilutions in FACS buffer. FACS buffer used throughout the assay was PBS (without Ca++/Mg++) containing 5% FBS. Samples were incubated on ice for 30 minutes, washed 3× with 200 uL FACS buffer and centrifuged at 1200 rpm for 3 minutes at 4° C. C2B8 (rituximab, IgG1) was used as a negative control. […] Samples were incubated for an additional 30 minutes on ice, shielded from light. Cells were washed as described above and resuspended in 100 μl FACS buffer containing propidium iodide (PI) for dead cell exclusion (BD Pharmingen, catalog# 51-66211E or 556463; use at 1:500 final in FACS buffer). Samples were run in triplicate using the FACSArray flow cytometer (Becton Dickinson) with 5000 live events collected per sample. Data analysis was performed using the GraphPad Prism version 5.0 software (GraphPad Software Inc., 11452 El Camino Real #215, San Diego, Calif. 92130). Results. […]

[2] = target: T1, human IGF-1R on H322M non-small cell …; test: cell-based or functional assay
sIGF-1R(1-903) [3] = target: T2, sIGF-1R(1-903) (human, UniProt P08069 31-933); test: equilibrium solution-phase SPR, free sIGF-1R(1-903) read on G11 surface
T2 construct: also called soluble IGF-1R ectodomain
T2 sequence (P08069 31-933): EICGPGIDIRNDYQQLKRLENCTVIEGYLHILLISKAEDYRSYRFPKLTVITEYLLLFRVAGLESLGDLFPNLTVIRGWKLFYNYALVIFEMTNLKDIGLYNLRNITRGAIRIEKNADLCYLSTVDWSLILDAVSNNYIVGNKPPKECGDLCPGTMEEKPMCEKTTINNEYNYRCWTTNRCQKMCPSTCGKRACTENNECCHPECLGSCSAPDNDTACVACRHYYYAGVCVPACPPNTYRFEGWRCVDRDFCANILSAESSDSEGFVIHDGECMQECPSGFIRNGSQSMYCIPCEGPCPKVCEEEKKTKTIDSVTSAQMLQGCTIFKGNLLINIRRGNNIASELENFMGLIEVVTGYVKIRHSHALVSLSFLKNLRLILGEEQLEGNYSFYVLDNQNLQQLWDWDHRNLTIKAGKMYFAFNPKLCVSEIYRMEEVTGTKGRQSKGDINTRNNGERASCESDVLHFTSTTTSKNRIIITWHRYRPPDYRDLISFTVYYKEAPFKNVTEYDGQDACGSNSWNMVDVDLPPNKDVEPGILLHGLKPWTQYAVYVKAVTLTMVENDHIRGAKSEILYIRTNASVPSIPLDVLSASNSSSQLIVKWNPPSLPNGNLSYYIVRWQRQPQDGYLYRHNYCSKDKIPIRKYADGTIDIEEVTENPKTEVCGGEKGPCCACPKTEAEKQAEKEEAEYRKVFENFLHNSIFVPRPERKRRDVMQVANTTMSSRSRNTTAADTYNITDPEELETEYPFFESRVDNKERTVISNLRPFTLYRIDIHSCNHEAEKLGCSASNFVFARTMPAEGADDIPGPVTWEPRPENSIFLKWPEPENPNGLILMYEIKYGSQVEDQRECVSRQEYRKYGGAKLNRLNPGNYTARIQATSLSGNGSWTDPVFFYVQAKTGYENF

[4] = target: T1, human IGF-1R on H322M non-small cell …; test: flow cytometry on H322M cells, anti-human Fc PE secondary (FIG. 55B)
Protocol: as §1

sIGF-1R(1-903) [5] = target: T2, sIGF-1R(1-903); test: ITC, 25 °C; footnote a: affinity too high for accurate measurement
Protocol: (§2) Isothermal Titration Calorimetry (ITC). […] The reagents were co-dialyzed against PBS, pH 7.2. The protein solutions were adjusted to the concentrations listed above by dilution using PBS dialysate. […] The protein solutions were prepared as described above for the MAb binding experiments. All ITC experiments were performed on an ITC₂₀₀ microcalorimeter (MicroCal, LLC) at 25° C. […] IGF-1R bispecific antibodies. A four minute equilibration period was used between all injections with an initial delay of 60 seconds. Numerical integration of the data was performed using the ITC data analysis software supplied by MicroCal (Origin). ΔHA° (T) values were calculated based on the difference between the average heat liberated/absorbed during the binding phase of the injections and the average heat of dilution found once the receptor, IGF-1R, was saturated with MAb or BsAb.

human IGF-1R(1-903)-Fc [6] = target: T3, human IGF-1R(1-903)-Fc (human, UniProt P08069 31-933); test: IGF-1 blocking ELISA at 20 nM IGF-1 His on biotinylated hIGF-1R-Fc
T3 construct: also called hIGF-1R-Fc; SDWT; not shown: human IgG1 Fc, C-terminal tag
T3 sequence (P08069 31-933): as above
Protocol: (§3) The dilutions were added to the plates in duplicate at 100 μL/well and the plates were incubated at RT for 1 hour. The plates were then washed four times with 200 μL/well PBST. An HRP-conjugated anti-Histag antibody (Penta-His HRP Conjugate, QIAGEN, Cat. No. 1014992) was diluted 1:1000 in PBST and added to plates at 100 μL/well, and the plates were incubated at RT for one hour. The plates were then washed four times with 200 μL/well PBST. SureBlue Reserve TMB Microwell Peroxidase Substrate (KPL, Cat. No. 53-00-01) was added to plates at 100 μL/well followed by 1% phosphoric acid at 100 μL/well once the desired reaction was observed. The absorbance of each well was determined at 450 nm, and the results were normalized and plotted against the log of antibody concentration.
(§4) Ligand Blocking Properties.

human IGF-1R(1-903)-Fc [7] = target: T3, human IGF-1R(1-903)-Fc; test: ELISA, blocking of IGF-2 His (640 nM by the table head) on biotinylated hIGF-1R-Fc
human IGF-1R(1-903)-Fc [8] = target: T3, human IGF-1R(1-903)-Fc; test: IGF-2 blocking ELISA: antibody titrated in 640 nM IGF-2 His on biotinylated hIGF-1R-Fc on streptavidin plates, bound ligand detected with anti-His-HRP
sIGF-1R(1-903) [9] = target: T2, sIGF-1R(1-903); test: ITC, 25 °C, antibody into sIGF-1R(1-903)
Protocol: as §2

[10] = target: T1, human IGF-1R on H322M non-small cell …; test: flow cytometry on H322M cells, anti-human Fab PE secondary (FIG. 55A)
Protocol: as §1

human IGF-1R(1-903)-Fc [11] = target: T3, human IGF-1R(1-903)-Fc; test: ELISA, blocking of 320 nM IGF-1 His on biotinylated hIGF-1R-Fc
Protocol: as §3, with “hIGF-1R-Fc was biotinylated using EZ-Link Sulfo-NHS-LC-Biotin according to the protocol provided by the manufacturer (Pierce Cat. No. 21335). Biotinylated human IGF-1R Fc (NB12453-9) at 5 μg/ml was added to the wells of SigmaScreen streptavidin-coated 96-well plates (Sigma, Cat. No. M5432-5EA) at 100 μL/well and incubated overnight at 2-8° C. The plates were then washed four times with 200 μL/well PBST. […] The dilutions” for “The dilutions”

[12] = target: T4, human IGF-1R(1-902)-His10 (human, UniProt P08069 31-932); test: SPR competition (Biacore 3000): soluble antibody titrated into 40 nM hIGF-1R-His, mixture injected over immobilized M14-G11
T4 construct: Bought from R&D Systems (305-GR-050); also called hIGF-1R-His10; hIGF-1R-His
T4 sequence (P08069 other isoform, or with tags, fused parts or gaps): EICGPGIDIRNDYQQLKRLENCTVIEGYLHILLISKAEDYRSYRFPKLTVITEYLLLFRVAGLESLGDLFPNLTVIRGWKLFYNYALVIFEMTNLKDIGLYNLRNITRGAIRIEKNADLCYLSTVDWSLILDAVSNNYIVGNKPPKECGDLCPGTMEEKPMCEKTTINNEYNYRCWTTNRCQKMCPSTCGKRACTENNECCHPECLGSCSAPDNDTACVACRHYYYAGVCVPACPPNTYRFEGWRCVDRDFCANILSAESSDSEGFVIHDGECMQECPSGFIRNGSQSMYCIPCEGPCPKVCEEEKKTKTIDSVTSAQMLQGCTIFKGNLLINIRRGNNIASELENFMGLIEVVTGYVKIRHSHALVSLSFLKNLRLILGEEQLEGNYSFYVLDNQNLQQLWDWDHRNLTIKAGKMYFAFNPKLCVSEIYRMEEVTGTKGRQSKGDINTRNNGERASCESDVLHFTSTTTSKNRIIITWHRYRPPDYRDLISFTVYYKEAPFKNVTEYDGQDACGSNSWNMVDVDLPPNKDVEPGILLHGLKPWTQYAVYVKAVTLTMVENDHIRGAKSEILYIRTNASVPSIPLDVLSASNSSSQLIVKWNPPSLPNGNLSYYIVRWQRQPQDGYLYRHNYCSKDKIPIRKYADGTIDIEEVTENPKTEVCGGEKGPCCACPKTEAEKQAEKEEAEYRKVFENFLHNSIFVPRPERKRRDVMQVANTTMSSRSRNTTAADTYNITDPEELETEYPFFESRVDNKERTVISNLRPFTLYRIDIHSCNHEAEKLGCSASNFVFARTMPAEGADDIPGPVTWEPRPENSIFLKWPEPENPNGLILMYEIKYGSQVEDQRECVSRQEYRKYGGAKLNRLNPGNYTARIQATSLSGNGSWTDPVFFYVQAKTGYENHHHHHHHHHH
Protocol: Regeneration was achieved by three 10 μL injections of 0.1 M glycine, pH 2.0. 100% hIGF-1R-His binding to each antibody was determined by the signal above the baseline under mass transport-limiting conditions 60 seconds into the injection.

sIGF-1R(1-903) [13] = target: T2, sIGF-1R(1-903); test: ITC series titration, G11 MAb into sIGF-1R(1-903) holding excess C06 MAb
Protocol: The protein solutions were prepared as described above for the MAb binding experiments. All ITC experiments were performed on an ITC₂₀₀ microcalorimeter (MicroCal, LLC) at 25° C. […] IGF-1R bispecific antibodies. A four minute equilibration period was used between all injections with an initial delay of 60 seconds. Numerical integration of the data was performed using the ITC data analysis software supplied by MicroCal (Origin). ΔHA° (T) values were calculated based on the difference between the average heat liberated/absorbed during the binding phase of the injections and the average heat of dilution found once the receptor, IGF-1R, was saturated with MAb or BsAb.
Both the dimeric receptor and the bivalent MAbs contain two potential binding sites.

[14] = target: T5, hIGF-1R-Fc mutant SD008 (S257F) (human, UniProt P08069 31-933); test: SPR, Fab over captured mutant hIGF-1R-Fc
T5 construct: not shown: human IgG1 Fc, C-terminal tag
T5 sequence (P08069 31-933 S287F): as the sequence (P08069 31-933) above, with S257F counted along it
Protocol: (§5) Surface plasmon resonance (SPR) experiments were performed on a Biacore 3000 instrument set to 25° C. […] The antibody sensorchip surfaces were prepared by injecting each antibody (diluted 100 μg/mL in 10 mM Acetate, pH 4.0) over EDC/NHS-activated sensorchip surfaces according to the standard protocol of the manufacturer. […] Both hIGF-1R-Fc and mIGF-1R-Fc proteins oligomerize due to the incorporation of two separate homodimeric regions (IGF-1R and IgG1-Fc). […] After, completion of the receptor-Fc loading step, flow rates were elevated to 5 μl/min. […] Dissociation was measured for 7 minutes after the antibody injections were complete. Finally, the flow rate was elevated to 30 μL/min and the chip surfaces were regenerated by 2×10 μL injections of 0.1 M glycine, pH 2.

[15] = target: T6, hIGF-1R-Fc mutant SD012 (E303G) (human, UniProt P08069 31-933); test: SPR, Fab over captured mutant hIGF-1R-Fc
T6 construct: not shown: human IgG1 Fc, C-terminal tag
T6 sequence (P08069 31-933 E333G): as the sequence (P08069 31-933) above, with E303G counted along it
Protocol: as §5

[16] = target: T7, hIGF-1R-Fc mutant SD202 (D250S) (human, UniProt P08069 31-933); test: SPR, Fab over captured mutant
T7 construct: not shown: human IgG1 Fc, C-terminal tag
T7 sequence (P08069 31-933 D280S): as the sequence (P08069 31-933) above, with D250S counted along it
Protocol: as §5

[17] = target: T8, hIGF-1R-Fc mutant SD201 (D248A) (human, UniProt P08069 31-933); test: SPR, Fab over captured mutant
T8 construct: not shown: human IgG1 Fc, C-terminal tag
T8 sequence (P08069 31-933 D278A): as the sequence (P08069 31-933) above, with D248A counted along it
Protocol: as §5

human IGF-1R(1-903)-Fc [18] = target: T3, human IGF-1R(1-903)-Fc; test: IGF-1 blocking ELISA: antibody titrated in 320 nM IGF-1 His on biotinylated hIGF-1R-Fc on streptavidin plates, bound ligand detected with anti-His-HRP
Protocol: as §3, §4

[19] = target: T9, hIGF-1R-Fc mutant SD207 (G265Y) (human, UniProt P08069 31-933); test: SPR, antibody over captured mutant
T9 construct: not shown: human IgG1 Fc, C-terminal tag
T9 sequence (P08069 31-933 G295Y): as the sequence (P08069 31-933) above, with G265Y counted along it
Protocol: as §5

[20] = target: T10, hIGF-1R-Fc mutant SD203 (N254A) (human, UniProt P08069 31-933); test: SPR, antibody over captured mutant
T10 construct: not shown: human IgG1 Fc, C-terminal tag
T10 sequence (P08069 31-933 N284A): as the sequence (P08069 31-933) above, with N254A counted along it
Protocol: as §5

T1 sequence (P08069 31-1367, stated change not applied): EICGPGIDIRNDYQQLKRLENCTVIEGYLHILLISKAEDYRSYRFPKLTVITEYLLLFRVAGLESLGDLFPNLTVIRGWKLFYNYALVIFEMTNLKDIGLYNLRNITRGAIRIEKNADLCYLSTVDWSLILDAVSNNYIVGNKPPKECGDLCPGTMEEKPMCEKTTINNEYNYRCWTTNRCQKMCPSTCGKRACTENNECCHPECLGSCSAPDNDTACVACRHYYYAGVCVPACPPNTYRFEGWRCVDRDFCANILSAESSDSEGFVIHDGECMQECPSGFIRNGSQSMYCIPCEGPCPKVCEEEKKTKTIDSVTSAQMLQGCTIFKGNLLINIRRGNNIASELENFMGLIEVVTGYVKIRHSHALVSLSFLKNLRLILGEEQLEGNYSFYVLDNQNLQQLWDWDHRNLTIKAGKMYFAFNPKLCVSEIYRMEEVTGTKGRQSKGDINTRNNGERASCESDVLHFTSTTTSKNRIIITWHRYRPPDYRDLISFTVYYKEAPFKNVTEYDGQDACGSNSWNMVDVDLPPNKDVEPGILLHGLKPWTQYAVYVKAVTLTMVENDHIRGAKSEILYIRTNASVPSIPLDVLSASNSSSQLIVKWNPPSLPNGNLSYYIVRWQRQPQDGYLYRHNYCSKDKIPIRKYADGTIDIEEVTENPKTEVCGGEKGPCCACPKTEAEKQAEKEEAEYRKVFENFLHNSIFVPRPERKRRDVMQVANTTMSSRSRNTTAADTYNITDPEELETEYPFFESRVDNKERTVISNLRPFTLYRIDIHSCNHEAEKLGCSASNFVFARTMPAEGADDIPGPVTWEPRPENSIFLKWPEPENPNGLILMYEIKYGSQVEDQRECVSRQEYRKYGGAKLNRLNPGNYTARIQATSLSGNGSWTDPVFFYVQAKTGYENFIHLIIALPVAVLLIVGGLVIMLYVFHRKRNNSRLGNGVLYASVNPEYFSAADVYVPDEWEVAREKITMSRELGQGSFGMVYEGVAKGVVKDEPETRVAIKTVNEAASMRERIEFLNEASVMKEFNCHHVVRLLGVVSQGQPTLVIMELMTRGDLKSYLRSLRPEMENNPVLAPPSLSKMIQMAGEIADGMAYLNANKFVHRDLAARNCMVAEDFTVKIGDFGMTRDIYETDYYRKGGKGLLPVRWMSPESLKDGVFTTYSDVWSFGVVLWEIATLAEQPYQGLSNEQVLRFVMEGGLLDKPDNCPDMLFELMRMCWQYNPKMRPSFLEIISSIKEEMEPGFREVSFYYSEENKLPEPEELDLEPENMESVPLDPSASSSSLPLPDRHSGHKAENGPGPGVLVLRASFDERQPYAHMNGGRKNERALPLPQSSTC

B1: M14-G11 antibody (antibody, V domains shown)
VH: EVQLLESGGGLVQPGGSLRLSCAASGFTFSNYPMYWVRQAPGKGLEWVSRISSSGGRTVYADSVKGRFTISRDNSKNTLYLQMNSLRAEDTAVYYCARDRWSRSAAEYGLGGYWGQGTLVTVSS
VL: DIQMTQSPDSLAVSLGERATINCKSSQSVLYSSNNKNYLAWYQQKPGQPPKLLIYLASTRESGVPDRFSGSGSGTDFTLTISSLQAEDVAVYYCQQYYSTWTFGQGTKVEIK
notes: Fully human full-length antibody; also called M14.G11.G4.P.agly; G11.G4P.agly
- EC50 [1]: < 1 nM
- reduction of surface IGF-1R after 24 hours (FACS, H322M cells) [2]: > 70%
- Kd (sIGF-1R(1-903) [3]): 0.1 nM
- n (#G11 specific binding sites) (sIGF-1R(1-903) [3]): 1.1
- EC50 [4]: 0.72 nM
- -TΔS (sIGF-1R(1-903) [5]): 14.8 kcal/mol
- Kd (sIGF-1R(1-903) [5]): 6 nM
- ΔG (sIGF-1R(1-903) [5]): -11.2 kcal/mol
- IC50 (read off the curve) (human IGF-1R(1-903)-Fc [6]): ~2 nM
- IC50 (human IGF-1R(1-903)-Fc [7]): 7.9 nM
- IC50 (read off the curve) (human IGF-1R(1-903)-Fc [8]): ~2 nM
- ΔH° (sIGF-1R(1-903) [9]): -26.6 kcal/mol
- EC50 [10]: 0.44 nM
- IC50 (human IGF-1R(1-903)-Fc [11]): 13 nM
- IC50 (read off the curve) [12]: ~20 nM
- ΔH° (sIGF-1R(1-903) [13]): -16.2 kcal/mol

B2: M14-G11 Fab (Fab, V domains shown)
VH: EVQLLESGGGLVQPGGSLRLSCAASGFTFSNYPMYWVRQAPGKGLEWVSRISSSGGRTVYADSVKGRFTISRDNSKNTLYLQMNSLRAEDTAVYYCARDRWSRSAAEYGLGGYWGQGTLVTVSS
VL: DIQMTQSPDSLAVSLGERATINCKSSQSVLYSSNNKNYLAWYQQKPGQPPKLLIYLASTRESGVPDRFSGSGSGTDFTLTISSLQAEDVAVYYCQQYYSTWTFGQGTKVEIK
notes: Enzymatically derived Fab
- Kd (sIGF-1R(1-903) [3]): 4 nM
- n (#G11 specific binding sites) (sIGF-1R(1-903) [3]): 1.7
- fold loss in affinity (KD) against wild type [14]: ~3 fold
- fold loss in affinity (KD) against wild type [15]: ~3 fold
- binding result [16]: no binding (tested: up to 30 nM Fab)
- binding result [17]: no binding (tested: up to 30 nM Fab)
- IC50 (read off the curve) (human IGF-1R(1-903)-Fc [18]): ~6 nM

B3: P1E2 chimeric antibody (antibody, V domains shown)
VH: QVQLQQPGAELVKPGASVKLSCKASGYTFTSYWMHWVKQRPGQGLEWIGEINPTYGRSNYNEKFKSKATLTVDKSSSTAYMQLSSLTSEDSAVYYCARLVRLRYFDVWGAGTTVTVSS
VL: DIVMTQAAFSNPVTLGTSASISCRSSKSLLHSNGITYLYWYLQKPGQSPQLLIYQMSNLASGVPDRFSSSGSGTDFTLRISRVEAEDVGVYYCAQNLELPYTFGGGTKLEIK
notes: also called DE12 Chimera; P1E2.3B12 variable domains
- binding result [19]: no binding (tested: up to 30 nM antibody)
- binding result [20]: no binding (tested: up to 30 nM antibody)
